Reference: patent US20180312587A1 (ADURO BIOTECH HOLDINGS EUROPE B V, published 2018)

B1: hSIRPα.50A.H3L4 (antibody, human IgG4 S228P, kappa, V domains shown)
VH: EVQLVQSGAEVVKPGASVMISCKASGFTFTNYYIHWVRQRPGQGLEWIGWIYPGNVNTKYNEKFKARVIMTADKSTSTVYMQLSSLTSEDTAVYYCARPTIIATDFDVWGQGTLVTVSS
VL: DIQMTQSPSSLSASVGDRVTITCKASQGVGTAVGWYQKKPGKVPKLLIYWASTRHTGVPDRFSGSGSGTDFTLTINGLQPEDVATYYCQQYSTYPFTFGGGTKLEIKR
notes: human IgG4 S228P, kappa; also called hSIRPα.50H3L4
B2: hSIRPα.50A.H5L4 (antibody, human IgG4 S228P, kappa, V domains shown)
VH: EVQLVQSGAEVVKPGASVKVSCKASGFTFTNYYIHWVRQAPEQGLEWIGWIYPGNVNTKYNEKFKARVTMTADKSTSTAYMELSSLRSDDMAVYYCARPTIIATDFDVWGQGTTVTVSS
VL: DIQMTQSPSSLSASVGDRVTITCKASQGVGTAVGWYQKKPGKVPKLLIYWASTRHTGVPDRFSGSGSGTDFTLTINGLQPEDVATYYCQQYSTYPFTFGGGTKLEIKR
notes: human IgG4 S228P, kappa; also called hSIRPα.50H5L4
B3: hSIRPα.50A.H3L5 (antibody, human IgG4 S228P, kappa, V domains shown)
VH: EVQLVQSGAEVVKPGASVMISCKASGFTFTNYYIHWVRQRPGQGLEWIGWIYPGNVNTKYNEKFKARVIMTADKSTSTVYMQLSSLTSEDTAVYYCARPTIIATDFDVWGQGTLVTVSS
VL: DIVLTQSPSFLSASVGDRVTITCKASQGVGTAVGWYQQKPGKSPKLLIYWASTRHTGVPDRFSGSGSGTEFTLTISNLQPEDFAAYYCQQYSTYPFTFGGGTKLEIKR
notes: human IgG4 S228P, kappa; also called hSIRPα.50H3L5
B4: hSIRPα.50A.H4L4 (antibody, human IgG4 S228P, kappa, V domains shown)
VH: EVQLQQSGAELVKPGASVKVSCKASGFTFTNYYIHWVRQRPGQGLEWMGWIYPGNVNTKYNEKFKAKATITADKSTSTAYMELSSLTSEDTAVYYCARPTIIATDFDVWGQGTTVTVSS
VL: DIQMTQSPSSLSASVGDRVTITCKASQGVGTAVGWYQKKPGKVPKLLIYWASTRHTGVPDRFSGSGSGTDFTLTINGLQPEDVATYYCQQYSTYPFTFGGGTKLEIKR
notes: human IgG4 S228P, kappa; also called hSIRPα.50H4L4
B5: hSIRPα.50A.H4L5 (antibody, human IgG4 S228P, kappa, V domains shown)
VH: EVQLQQSGAELVKPGASVKVSCKASGFTFTNYYIHWVRQRPGQGLEWMGWIYPGNVNTKYNEKFKAKATITADKSTSTAYMELSSLTSEDTAVYYCARPTIIATDFDVWGQGTTVTVSS
VL: DIVLTQSPSFLSASVGDRVTITCKASQGVGTAVGWYQQKPGKSPKLLIYWASTRHTGVPDRFSGSGSGTEFTLTISNLQPEDFAAYYCQQYSTYPFTFGGGTKLEIKR
notes: human IgG4 S228P, kappa; also called hSIRPα.50H4L5
B6: hSIRPα.50A.H4L1 (antibody, human IgG4 S228P, kappa, V domains shown)
VH: EVQLQQSGAELVKPGASVKVSCKASGFTFTNYYIHWVRQRPGQGLEWMGWIYPGNVNTKYNEKFKAKATITADKSTSTAYMELSSLTSEDTAVYYCARPTIIATDFDVWGQGTTVTVSS
VL: DIVLTQSPSFLSASVGDRVTITCKASQGVGTAVGWYQQKPGKAPKLLIYWASTRHTGVPDRFSGSGSGTEFTLTISSLQPEDFAAYYCQQYSTYPFTFGGGTKLEIKR
notes: human IgG4 S228P, kappa; also called hSIRPα.50H4L1

Key:
human SIRPβ1 = biological target: T1, human SIRPβ1 (human, UniProt O00241 30-398); assay: CELISA, CHO-K1 transfectants; nd = not detected
T1 construct: also called hSIRPβ1
Method: (§1) Binding of the humanized antibodies to hSIRPα was studied in CELISA format. Binding of the hSIRPα antibodies to human SIRPαV1, SIRPαV2, hSIRPβ1, and hSIRPγ was confirmed using CHO-K1 cells that had been transiently transfected with cDNA encoding the full length open reading frame of each of these respective targets subcloned into the pCI-neo vector. CHO-K1.hSIRPαV1, CHO-K1.hSIRPαV2, CHO-K1.hSIRPβ1, and CHO-K1.hSIRPγ cells were seeded in culture medium (DMEM-F12 (Gibco) supplemented with 5% New Born Calf Serum (BioWest) and Pen/Strep (Gibco)) in 96-well flat-bottom tissue culture plates and incubated at 37° C., 5% CO₂ and 95% humidity until cell layers were confluent. Subsequently, culture medium was removed and cells were incubated for 1 hour at 37° C., 5% CO₂ and 95% humidity with purified hSIRPα antibodies (10 μg/mL and dilutions thereof). Next, cells were washed with PBS-T and incubated for 1 hour at 37° C., 5% CO₂ and 95% humidity with goat-anti-human IgG-HRP conjugate (Jackson Immuno Research) or goat-anti-mouse IgG-HRP (Southern Biotech). Subsequently, cells were washed three times with PBS-T and anti-hSIRPα immunoreactivity was visualized with TMB Stabilized Chromogen (Invitrogen). Reactions were stopped with 0.5 M H₂SO₄ and absorbances were read at 450 and 610 nm. […] In Table 13 the EC50 values of the humanized hSIRPα antibodies are depicted.
(§2) Table 13: Binding of humanized and parental hSIRPα.50A antibodies to CHO-K1.hSIRPαV1, CHO-K1.hSIRPαV2, CHO-K1.hSIRPβ1, and CHO-K1.hSIRPγ cells.

human SIRPγ = biological target: T2, human SIRPγ (human, UniProt Q9P1W8 29-387); assay: CELISA, CHO-K1 transfectants; extrapolated
T2 construct: on transfected CHO-K1 cells; also called hSIRPγ
Method: as §1, §2

human SIRPα variant 1 = biological target: T3, human SIRPα variant 1 (human, UniProt P78324 31-504); assay: CELISA, CHO-K1 transfectants; average of two experiments
T3 construct: full length ORF on transfected CHO-K1 or HEK293 cells; entry includes the signal peptide; also called hSIRPαV1; SIRPαV1
Method: as §1, §2

human SIRPα variant 2 = biological target: T4, human SIRPα variant 2 (human, UniProt P78324 31-504); assay: as above
T4 construct: full length ORF on transfected CHO-K1 cells; also called hSIRPαV2; SIRPαV2
Method: as §1, §2

T1 sequence (O00241 30-398 limits assumed): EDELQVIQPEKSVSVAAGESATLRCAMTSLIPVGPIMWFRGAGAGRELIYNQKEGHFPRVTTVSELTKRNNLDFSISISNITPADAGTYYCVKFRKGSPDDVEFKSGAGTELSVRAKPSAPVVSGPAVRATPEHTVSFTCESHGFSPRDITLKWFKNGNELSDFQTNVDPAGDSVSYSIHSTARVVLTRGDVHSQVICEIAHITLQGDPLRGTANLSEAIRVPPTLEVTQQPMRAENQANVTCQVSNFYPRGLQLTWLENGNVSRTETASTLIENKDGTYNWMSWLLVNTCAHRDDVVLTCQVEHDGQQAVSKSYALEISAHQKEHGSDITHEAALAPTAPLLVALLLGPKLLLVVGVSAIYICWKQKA
T3 sequence (P78324 31-504 limits assumed, change not shown): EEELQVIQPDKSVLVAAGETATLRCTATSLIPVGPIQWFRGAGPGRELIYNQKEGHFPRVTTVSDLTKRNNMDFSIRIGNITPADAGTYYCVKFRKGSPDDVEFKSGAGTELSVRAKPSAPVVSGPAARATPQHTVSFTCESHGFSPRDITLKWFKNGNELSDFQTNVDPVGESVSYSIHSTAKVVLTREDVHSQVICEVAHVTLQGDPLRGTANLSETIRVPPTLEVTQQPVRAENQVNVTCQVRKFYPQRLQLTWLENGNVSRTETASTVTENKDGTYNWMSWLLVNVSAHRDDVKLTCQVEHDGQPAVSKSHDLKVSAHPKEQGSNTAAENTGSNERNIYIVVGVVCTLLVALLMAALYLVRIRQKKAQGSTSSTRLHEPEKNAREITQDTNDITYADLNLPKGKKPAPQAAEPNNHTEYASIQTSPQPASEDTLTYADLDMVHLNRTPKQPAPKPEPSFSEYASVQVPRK
T4 sequence (P78324 other isoform, or with tags, fused parts or gaps mutant limits assumed): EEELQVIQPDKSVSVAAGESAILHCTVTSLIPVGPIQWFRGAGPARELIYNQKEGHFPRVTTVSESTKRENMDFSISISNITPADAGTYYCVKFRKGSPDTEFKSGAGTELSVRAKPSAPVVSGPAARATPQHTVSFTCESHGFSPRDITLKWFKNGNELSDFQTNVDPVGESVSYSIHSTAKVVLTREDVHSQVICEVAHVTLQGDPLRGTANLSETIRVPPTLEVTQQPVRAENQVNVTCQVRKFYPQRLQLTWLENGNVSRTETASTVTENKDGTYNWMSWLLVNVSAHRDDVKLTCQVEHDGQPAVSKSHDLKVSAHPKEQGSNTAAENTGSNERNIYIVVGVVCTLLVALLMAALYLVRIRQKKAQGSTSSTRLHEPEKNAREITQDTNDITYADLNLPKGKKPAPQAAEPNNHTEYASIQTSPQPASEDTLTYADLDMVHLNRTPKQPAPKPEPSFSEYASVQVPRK
T2 sequence (Q9P1W8 29-387 limits assumed): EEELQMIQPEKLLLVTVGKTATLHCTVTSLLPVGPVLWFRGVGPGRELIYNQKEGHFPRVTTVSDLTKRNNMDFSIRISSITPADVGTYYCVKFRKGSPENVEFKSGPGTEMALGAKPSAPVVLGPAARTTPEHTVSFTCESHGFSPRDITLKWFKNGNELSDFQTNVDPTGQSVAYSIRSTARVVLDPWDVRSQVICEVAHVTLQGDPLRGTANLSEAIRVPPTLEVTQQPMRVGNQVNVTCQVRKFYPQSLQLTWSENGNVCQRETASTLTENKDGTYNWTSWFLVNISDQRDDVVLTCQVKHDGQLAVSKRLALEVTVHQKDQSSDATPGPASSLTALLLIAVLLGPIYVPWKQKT

Binder	binding result (human SIRPβ1)	EC50 (human SIRPγ) [nM]	EC50 (human SIRPα variant 1) [nM]	EC50 (human SIRPα variant 2) [nM]
B1	no binding (tested: 10 µg/mL and dilutions thereof)	5.17	1.26	1.52
B2	no binding (tested: 10 µg/mL and dilutions thereof)	4.03	1.17	1.11
B3	no binding (tested: 10 µg/mL and dilutions thereof)	1.2	0.878	0.868
B4	no binding (tested: 10 µg/mL and dilutions thereof)	1.98	1.2	1.24
B5	no binding (tested: 10 µg/mL and dilutions thereof)	0.808	0.701	0.661
B6	no binding (tested: 10 µg/mL and dilutions thereof)	0.95	0.683	0.681
